Source: the DeepSol protein solubility set

Assay: soluble on expression in E. coli; label from the status in PepcDB or PDB records

Sequence | soluble on expression in E. coli
AHHHHHHGSLPKNYDPNEIEPKWQKYWLEEKIYKYKLEPDKPSYAIDTPPPFTSGTLHLGHVLSHTWIDIIARYKRMRGYNVLFPQGFDNHGLPTELKVEKEFGISKDQPEEFLKKCIEWTWQAIEKMRAQFIRIGYSADWDLEYHTMDDWYKAAVQKSLLDFYKKGLIYREEHPVYWCPRCRTSLAKAEVGYVEEEGYLYYIKLPLADGSGYIPIATTRPELMPACVAVFVHPDDERYKHLVGKKVKLPIYEREVPILADEDVDPNFGTGAVYNCTYGDEQDIVWQKRYNLPVIIAINEDGTMNENAGPYAGLKIEEARKKIAEDLEKMGLLYKKEKITHRVLRHTERSSCMAPIELLPKKQWFIKVREFTDDIVEVAKKINWYPEDMFLRLKDWAESMDWDWVISRQRVFGTPIPFWICKNGHIIPAREEDLPVDPRFDKPPVEKCPVCGAEIEPVTDVLDCWVDSSITPLIITKWHEAIKGDEEAKKWFEHNFPTALRPQGTDIIRTWAFYTIFRTYMLTGEKPWNDIVINGMVAGPDGRKMSKSYGNVVSPEEVIPKYGADALRLWTALAPPGEDHPFKWEIVDYNFRFLQKLWNIYRFAERHIKDFDYEKYKHIELEPLDRWILSRLHRIIKFATEELEKYRFNLITRELMTFIWHEVADDYIEMIKHRLYGEDEESKLKAKVALYELLYNIMLLLAPFVPHITEELYHHIFKEKIGEKSVHLLQWPEYREDRIDEEAEKIGELAREIVSAMRKYKNSHGMPLNAKLKHVAIYATDSYEMLKVIEKDIAGTMNIERLEIVKGEPQLEEKVVEIKPIYKRIGPRYGKLVPKIVKHLQENAEEIGRRIKEEGKVEFEVEGQKVVLEKEDIEIKKAVFSEGEEVETAVVRDATILFF | not soluble
GIDPFTQRLNFGDDIPSALRIAKKKRWNSIEEKRISQENELHAYLSKLILAEKERELDDRVKQSDDSQNGGDISKMKSKHDKYLMDMDELFSQVDEKRKKREIPDYLCGKISFELMREPCITPSGITYDRKDIEEHLQRVGHFDPVTRSPLTQDQLIPNLAMKEVIDAFIQENGWVEDY | soluble
MADLRKAARGRECQVRIPGVCNGNPETSVLAHIRLTGLCGTGTKPPDLIATIACSACHDEIDRRTHFVDAGYAKECALEGMARTQVIWLKEGVIKA | soluble
MSLKAAVLKNYGTLPEYQEFPEPKPKNYDELLVTPIASSVKRLDVIRAAGKHYTKFSELPAVMGMDGVAKLDNNSRVYAMGITGMMAEKALIDQRTMTVLPDGLDAGLAAALPNALIGSDLALLERGKIKTGDVVFINGATGLTGSLAVQMAKLRGAKRVIVTGRDPIKLQHLKDLGAYLTITTNQPDNSFVKELINAYNQSPFNLILDYLWGHPAELIIEALRRIRFLNSLKYISIGSLAGEGISVPSQLLRSKDLELIGSGIGSLDPNAVQVYMQKHLTEIFDYANQGKLSMELKSFPLDKISSAWISAPAVITIEGHHHHHH | not soluble
DRKMNRKMISIVENDGNGFREVFRYDYERKNFVPDNLKEITSIQLERSRELLGWSRDKLYREIENRLLLIRGLAEKGVYDYDTLARELVKYYTNGD | not soluble
MSDENLETESTSKALEDILSYTDSPAFRHIFSFFLGRPRIRAKSTLNLDILSEEVVIRKGKLIHTWQNARAVFYNSNIRLQTKNNQDEALQIRNMKVDVHESKRGRALRLKDDDVCYLIIFQRPNILEAWLTRAQQVEKSNHVDASDEQLTLIPEQILNNEARVQILNLRRNSLISRPPTEKSMAPLGYIDDLYRVHSLQVIDLSANQILSFPIQLTLLSHLRQLNLSSNYISSVPSECSNMRRLQYLNLSNNQLDTLPDSISELQNLQSLDISFNQFSQIPPCLFHLTLEMWRLAGNNIEKIDRVGEMQIQKIDLRRNVLDTSFRLDIENITHLDLRDNSMISTVHLTNLRFLKVIHCERLQLSSLHLSGESLTHVYADHNLLDSLVVMPLPQNLQTLSLSFNHFRNLPDWISDCPNLTFLRANNNSLVALPERIFYSQSLRSIFAFINEIEHIPDFGEENCLETLILYKNKLSSLPKHFFSILPRLRQLNISSNFIELLPYFDGSSFCRLQILRCANNYLTENSVPVIVNMKHLKIIDLSHNRLNSFDDSALSSLELLEDLNLSSNRLTRLADCLALLPCLQVLRAHSNQLVHVPEFRASNQLHTIDVSSNNISLGTLQFKAPPNLRHFDVTCNSGDFDTENFPENAKMHSKMNTINISEGSQNLFGFQIGVSGSRGMKNKQCIRQVRVENTFGFIDGGSNSYMSSSICRFMTSYLKENVSMDIRSILLRCHCELGEEGERLGASVMIIRVHEKRLEIASTGTMSAAIARNQKLKMIINGRYEIDDDEYSRIREAHGFVDEENRINGVIGSSRQIGHFSTFPVVLPTHSYRNIQLNEQIEGLIVGNNMIWNMLSIDDLNSTFHNNRSPIVVAKKIQDQLQSYDYGGNSNILVLRRIKPQMTFNGFSTSSTKNQVTPDIAIPKIDEQLVLAVPALILPEYHPSPPVPPPIPAIRHRTPSPPPPPLPSSTPPPVSSEHEEINVRQSSTLSGGYTLSIDRFYSSSSTVSSRKQFNETRDLLSKSLKLSPPNTVTFNI | not soluble
MGSDKIHHHHHHMSSCEIFPLISKLSAEGKRFAIVSIYKGNRLERTIVSDGRVLLGSLDRNIIEIALEALEKGKVIQKDLEDGKLVIEPIEPRPAIIVVGSGIIARFLAKLAIDMGYYVAVVGSGDVKEEDFSGVYAISNDLNLLEQMVSEDSIVIVANEGGKPYDIDALYIAMKKRARFVGLLASQKRAALMISLLVKRDIPLEEIKRRLHSPLGLDIGSKTAEEIALSILSEVVLDLRGGTGKRLQEVKNPYLLLDDALAGKIEDKCMFVPKSLSQQ | not soluble
MTVIIKSMETPEEIEGKSFVHWQTWREAYDDLLPAEFQETMTLERCRLFSQKYPENTLIAMDGVKIVGFISYGNCRDETIQAGEIIALYVLKDYYGKGIAQKLVKAALTDLNHFSEIFLWVLKDNKRAIAFYQKMGFTFDGQEKILELGKPIKEKRMVFYSK | not soluble
RAKLMEERETSLKDSVEVAFDAVRLIANNPNLSEAEAKQQVKAVLTNIRYGSDGYFFAYDAQGTNLVHPIQPELVGQNLWQLQDERGDFLIQ | not soluble
MENQDYTVRLTVQASPQEVFKQINRVTAWWTKNLQGDSEKLNDVFTVNFPGMHVSTQKLIECIPDKKVTWMVTDSHLTFIQRKTEWTDTTIQFDISRNVKHTEVLFTHKGLNPAIECYGDCAKGWDYFIKGSLFKLLTEGTGTPELEHHHHHH | soluble
MRNETLVSIIVPVYNSAQYLRKCIDSILAQSYTEFELLLINDGSEDHSGLICDDYAQSDNRIQVFHQENAGVSAARNLGLEKHTGEHFLFIDSDDYIQERYLEELMKYASCDFVQCSCCSEPVGNDYLFVDGNFEGSDEIKQCLLKYIYPEFTVPFGRLYKSSIQRKNKLFFDTYLYSGEDTLWVSQYLLCVHSLRVSSYIGYIYVHHVGEHLSQKSISYEHLEYTLHKLLISYSDLEKRYDFDLTGVRYSVIIYFFHRYIVYIANRNYTEIRKELEKSCANPLIKGVFYDKKYLLKGKKMKLFNWLVLHDMYSVLALYVKRWKRYL | not soluble
MESCLDIFKIVIGPSSSRTVGPMRAACHFISLLREQETLPLIREIEIELYGALSLSRKCHNVDTALYLGLLGCQPENVDLRSYMAVIKRAENENKIELPLSDAGGITIKVKIIANHQAHPGHPYAMTFRARDDYFTVYEETWFSTGAGQVRKHGEPLTPSLPLRTVSPFEFSHAAQLLALCRRNGLSVAALMMKNELCRHSPQTLQNYLAQIWDVMQQAVYRGLHTEGVLPGPYQVPRRACALHKTLQANRSASDFLTALNWVNAFAIAVSEENASGGQIVTAPTNGACGIIPAALCWYDKFVTPLEPGALTRFFLTAAAIAMLFKQNASILGSEVGCQGEIGVACSMAAAGLAELMGASVEQTLSAAEIAMEHHLGLTCDPLGGQVQIPCIERNAISAVKAINAATMAMSRVSEPCISLDEIIAAMYETGKDMSAKYRETYHGSLGKIQPRKRG | not soluble
MSLSQFAAGAGKKAGEFYTPQEVSRILAEIVAIGHQRLRNVYDPTCGSGSLLLRAASIGNAVDIYGQEKNPTTYNLARMNMLLHGIRFSNFKIENGDTLEWDAFGDTQFDAVVANPPFSAEWSAADKFNTDDRFSKAGRLAPRKTADYAFILHMIYHLNEGGTMACVAPHGVLFRGNAEGVIRRFLIEKKNYVDAIIGLPANIFYGTSIPTCILVFKKEGHHHHHH | not soluble
